Source: the supplement of paper PMC10065799, “High-throughput profiling of sequence recognition by tyrosine kinases and SH2 domains using bacterial peptide display” (eLife, 2023)

How the values were obtained:
c-Src = assay: phosphorylation enrichment, bacterial display (enrichment ratio); higher = better substrate or ligand; peptides without Tyr show the background
c-Abl (mouse) = assay: as above
Hck = Hck (UniProt P08631); assay: as above
MERTK = MERTK (UniProt Q12866); assay: as above
AncSZ = assay: as above
EPHB2 = EPHB2 (UniProt P29323); assay: as above
EPHB2, sequence (P29323 whole entry, looked up): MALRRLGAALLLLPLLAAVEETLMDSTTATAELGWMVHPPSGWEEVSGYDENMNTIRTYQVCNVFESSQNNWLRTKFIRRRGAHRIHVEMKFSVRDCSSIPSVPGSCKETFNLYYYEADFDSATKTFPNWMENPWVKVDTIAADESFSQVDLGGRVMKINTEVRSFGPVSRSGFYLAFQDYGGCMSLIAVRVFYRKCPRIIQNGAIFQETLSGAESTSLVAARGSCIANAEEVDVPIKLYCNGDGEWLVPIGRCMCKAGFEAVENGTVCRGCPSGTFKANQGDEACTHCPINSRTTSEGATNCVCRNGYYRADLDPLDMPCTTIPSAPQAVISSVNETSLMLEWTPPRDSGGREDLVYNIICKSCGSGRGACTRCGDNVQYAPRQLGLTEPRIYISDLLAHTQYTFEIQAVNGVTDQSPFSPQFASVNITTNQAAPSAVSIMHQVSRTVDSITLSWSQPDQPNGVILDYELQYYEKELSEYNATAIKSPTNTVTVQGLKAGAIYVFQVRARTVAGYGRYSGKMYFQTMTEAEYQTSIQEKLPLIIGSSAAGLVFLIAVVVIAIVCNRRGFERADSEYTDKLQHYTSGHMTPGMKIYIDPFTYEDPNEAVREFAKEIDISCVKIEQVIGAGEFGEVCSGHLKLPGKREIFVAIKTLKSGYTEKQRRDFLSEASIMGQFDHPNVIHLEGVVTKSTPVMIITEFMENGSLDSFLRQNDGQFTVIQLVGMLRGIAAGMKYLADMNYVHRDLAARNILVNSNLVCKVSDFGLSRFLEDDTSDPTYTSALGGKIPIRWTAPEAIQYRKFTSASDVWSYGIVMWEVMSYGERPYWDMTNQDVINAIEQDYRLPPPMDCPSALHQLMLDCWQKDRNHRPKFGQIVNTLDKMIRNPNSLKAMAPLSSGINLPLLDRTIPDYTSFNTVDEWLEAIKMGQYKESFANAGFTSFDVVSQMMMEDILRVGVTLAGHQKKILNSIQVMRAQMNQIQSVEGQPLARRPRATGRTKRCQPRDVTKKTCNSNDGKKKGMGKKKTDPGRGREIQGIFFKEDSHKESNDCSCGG

Fyn = Fyn (UniProt P06241); assay: as above
Fes = Fes (UniProt P07332); assay: as above
Fes, sequence (P07332 whole entry, looked up): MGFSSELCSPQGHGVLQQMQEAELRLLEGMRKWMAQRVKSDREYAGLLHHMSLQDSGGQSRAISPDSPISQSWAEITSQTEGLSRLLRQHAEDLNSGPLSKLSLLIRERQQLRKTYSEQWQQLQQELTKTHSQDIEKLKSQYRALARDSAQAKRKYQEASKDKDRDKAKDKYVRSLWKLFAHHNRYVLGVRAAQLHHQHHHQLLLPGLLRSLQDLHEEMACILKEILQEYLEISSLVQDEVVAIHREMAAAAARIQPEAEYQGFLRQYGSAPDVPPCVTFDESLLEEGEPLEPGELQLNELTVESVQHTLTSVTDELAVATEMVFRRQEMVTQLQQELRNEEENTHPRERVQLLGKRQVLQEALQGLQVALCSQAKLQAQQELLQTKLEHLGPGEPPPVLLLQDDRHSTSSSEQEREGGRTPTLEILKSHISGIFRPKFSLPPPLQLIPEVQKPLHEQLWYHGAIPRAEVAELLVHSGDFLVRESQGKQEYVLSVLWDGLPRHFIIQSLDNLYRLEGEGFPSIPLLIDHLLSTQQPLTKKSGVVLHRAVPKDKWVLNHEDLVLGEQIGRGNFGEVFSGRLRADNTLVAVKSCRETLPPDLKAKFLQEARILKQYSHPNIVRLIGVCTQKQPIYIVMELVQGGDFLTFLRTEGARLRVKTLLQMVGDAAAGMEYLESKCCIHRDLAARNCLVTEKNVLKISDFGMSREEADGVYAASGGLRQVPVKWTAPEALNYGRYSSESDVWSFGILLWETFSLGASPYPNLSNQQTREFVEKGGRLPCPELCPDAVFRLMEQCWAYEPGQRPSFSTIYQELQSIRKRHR

Jak2 = Jak2 (UniProt O60674); assay: as above
FGFR1 = FGFR1 (UniProt P11362); assay: as above
FGFR1, sequence (P11362 whole entry, looked up): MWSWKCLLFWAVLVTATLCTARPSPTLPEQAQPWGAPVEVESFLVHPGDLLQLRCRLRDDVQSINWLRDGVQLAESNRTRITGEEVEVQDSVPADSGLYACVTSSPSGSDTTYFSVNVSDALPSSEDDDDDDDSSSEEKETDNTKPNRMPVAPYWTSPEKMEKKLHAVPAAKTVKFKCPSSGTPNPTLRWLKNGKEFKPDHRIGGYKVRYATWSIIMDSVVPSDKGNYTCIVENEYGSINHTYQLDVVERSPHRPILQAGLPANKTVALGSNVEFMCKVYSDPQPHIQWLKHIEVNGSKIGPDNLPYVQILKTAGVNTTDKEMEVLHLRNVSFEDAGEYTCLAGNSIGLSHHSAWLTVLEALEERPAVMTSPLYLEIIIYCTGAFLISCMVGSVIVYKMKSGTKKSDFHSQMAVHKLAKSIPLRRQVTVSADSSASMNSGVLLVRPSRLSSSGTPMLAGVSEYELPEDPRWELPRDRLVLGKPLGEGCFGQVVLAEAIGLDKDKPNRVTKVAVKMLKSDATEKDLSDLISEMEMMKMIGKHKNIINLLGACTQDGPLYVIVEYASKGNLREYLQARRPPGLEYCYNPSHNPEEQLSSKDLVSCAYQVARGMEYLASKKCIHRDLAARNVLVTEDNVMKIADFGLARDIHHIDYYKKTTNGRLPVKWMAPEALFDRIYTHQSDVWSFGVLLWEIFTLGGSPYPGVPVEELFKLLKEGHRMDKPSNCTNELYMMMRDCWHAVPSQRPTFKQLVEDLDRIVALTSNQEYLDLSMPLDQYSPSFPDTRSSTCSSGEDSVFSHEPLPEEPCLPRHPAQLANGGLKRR

FGFR3 = FGFR3 (UniProt P22607); assay: as above
FGFR3, sequence (P22607 whole entry, looked up): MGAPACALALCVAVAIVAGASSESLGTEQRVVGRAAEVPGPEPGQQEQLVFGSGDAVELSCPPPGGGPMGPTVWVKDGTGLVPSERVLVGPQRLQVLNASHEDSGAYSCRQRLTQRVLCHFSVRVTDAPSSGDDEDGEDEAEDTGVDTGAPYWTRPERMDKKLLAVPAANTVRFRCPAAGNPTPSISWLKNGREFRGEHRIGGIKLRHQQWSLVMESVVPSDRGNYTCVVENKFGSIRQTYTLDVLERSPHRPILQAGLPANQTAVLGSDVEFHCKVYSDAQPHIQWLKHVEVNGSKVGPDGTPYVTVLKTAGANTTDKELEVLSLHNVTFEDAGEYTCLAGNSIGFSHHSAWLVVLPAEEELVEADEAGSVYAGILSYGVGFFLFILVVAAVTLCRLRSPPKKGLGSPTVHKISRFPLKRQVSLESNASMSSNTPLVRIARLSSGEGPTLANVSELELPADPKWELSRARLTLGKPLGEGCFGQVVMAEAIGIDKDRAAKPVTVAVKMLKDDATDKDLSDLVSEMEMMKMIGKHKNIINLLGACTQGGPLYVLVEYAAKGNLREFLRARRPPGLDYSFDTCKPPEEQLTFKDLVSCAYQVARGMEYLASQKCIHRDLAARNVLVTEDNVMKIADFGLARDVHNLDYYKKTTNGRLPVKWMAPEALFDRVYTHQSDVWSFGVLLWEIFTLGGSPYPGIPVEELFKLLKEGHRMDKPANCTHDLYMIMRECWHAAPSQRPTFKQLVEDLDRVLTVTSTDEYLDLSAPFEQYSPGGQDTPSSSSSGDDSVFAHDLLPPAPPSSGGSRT

EPHB1 = EPHB1 (UniProt P54762); assay: as above
Fer (mouse) = assay: as above
SHP2-C SH2 = assay: SH2 binding enrichment of the phosphorylated peptide, bacterial display (enrichment ratio); higher = better substrate or ligand; peptides without Tyr show the background
c-Src SH2 = assay: as above
Grb2 SH2 = Grb2 SH2 (UniProt P62993); assay: as above
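Throughout, for SH2 binding enrichment of the phosphorylated peptide, bacterial display: peptide library displayed on the E. coli surface as eCPX fusions, selected cells deep-sequenced, score is each peptide's frequency after selection divided by its frequency in the input.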
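Throughout, for phosphorylation enrichment, bacterial display: 11-residue human phosphosite peptides and single-mutation variants displayed on the E. coli surface, counted by deep sequencing, each peptide's frequency after selection divided by its frequency in the unselected input library; frequency after pTyr selection over input frequency; kinase dosed for 20-30% of maximal phosphorylation in three min.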

MERTK, sequence (Q12866 whole entry, looked up): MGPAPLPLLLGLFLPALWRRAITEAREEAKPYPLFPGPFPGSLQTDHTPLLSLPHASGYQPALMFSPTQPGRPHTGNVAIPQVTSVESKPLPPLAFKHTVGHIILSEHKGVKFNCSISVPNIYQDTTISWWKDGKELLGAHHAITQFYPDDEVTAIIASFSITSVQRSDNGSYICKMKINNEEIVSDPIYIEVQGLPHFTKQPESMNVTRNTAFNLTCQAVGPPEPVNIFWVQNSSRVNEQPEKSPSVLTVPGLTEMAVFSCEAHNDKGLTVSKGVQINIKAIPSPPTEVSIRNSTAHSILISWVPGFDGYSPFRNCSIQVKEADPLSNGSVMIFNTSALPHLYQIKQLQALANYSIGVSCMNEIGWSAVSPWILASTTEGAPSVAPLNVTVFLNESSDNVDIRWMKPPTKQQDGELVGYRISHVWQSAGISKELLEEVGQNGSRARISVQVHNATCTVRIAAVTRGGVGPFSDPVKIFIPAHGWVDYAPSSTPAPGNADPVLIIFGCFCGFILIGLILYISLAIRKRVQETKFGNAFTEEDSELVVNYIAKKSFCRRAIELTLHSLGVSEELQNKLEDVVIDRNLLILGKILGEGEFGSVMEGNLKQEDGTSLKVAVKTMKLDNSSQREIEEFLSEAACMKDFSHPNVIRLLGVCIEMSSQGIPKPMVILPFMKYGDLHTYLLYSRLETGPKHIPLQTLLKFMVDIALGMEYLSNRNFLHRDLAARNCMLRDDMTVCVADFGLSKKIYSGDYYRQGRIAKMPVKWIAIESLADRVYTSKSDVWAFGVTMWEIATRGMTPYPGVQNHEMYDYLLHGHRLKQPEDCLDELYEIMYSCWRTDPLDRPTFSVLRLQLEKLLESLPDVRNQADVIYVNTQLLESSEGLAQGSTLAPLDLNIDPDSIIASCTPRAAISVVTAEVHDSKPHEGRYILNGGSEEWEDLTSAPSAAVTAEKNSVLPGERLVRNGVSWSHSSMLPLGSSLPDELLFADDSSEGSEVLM
Hck, sequence (P08631 whole entry, looked up): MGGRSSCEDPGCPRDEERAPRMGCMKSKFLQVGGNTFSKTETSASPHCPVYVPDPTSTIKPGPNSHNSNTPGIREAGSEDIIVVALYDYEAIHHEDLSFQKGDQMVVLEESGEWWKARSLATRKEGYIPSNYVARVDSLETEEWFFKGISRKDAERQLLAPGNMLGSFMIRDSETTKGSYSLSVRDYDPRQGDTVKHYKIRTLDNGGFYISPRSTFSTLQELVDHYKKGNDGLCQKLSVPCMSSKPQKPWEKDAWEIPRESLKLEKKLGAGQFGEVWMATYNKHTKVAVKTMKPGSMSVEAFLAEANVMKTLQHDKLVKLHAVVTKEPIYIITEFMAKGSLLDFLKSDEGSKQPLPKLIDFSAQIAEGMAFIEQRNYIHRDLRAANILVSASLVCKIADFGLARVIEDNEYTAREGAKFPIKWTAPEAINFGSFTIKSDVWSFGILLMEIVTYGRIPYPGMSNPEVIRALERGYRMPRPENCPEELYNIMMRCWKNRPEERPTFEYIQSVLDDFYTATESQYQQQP

Sequence | SH2 binding enrichment (SHP2-C SH2) | SH2 binding enrichment (c-Src SH2) | SH2 binding enrichment (Grb2 SH2) | phosphorylation enrichment (c-Src) | phosphorylation enrichment (c-Abl (mouse)) | phosphorylation enrichment (Hck) | phosphorylation enrichment (MERTK) | phosphorylation enrichment (AncSZ) | phosphorylation enrichment (EPHB2) | phosphorylation enrichment (Fyn) | phosphorylation enrichment (Fes) | phosphorylation enrichment (Jak2) | phosphorylation enrichment (FGFR1) | phosphorylation enrichment (FGFR3) | phosphorylation enrichment (EPHB1) | phosphorylation enrichment (Fer (mouse))
AGEGSYALDSE [PES1_Y265_T264S] | 0.649 | 0.668 | 0.977 | 0.538 | 0.64 | 0.747 | 0.568 | 1.24 | 0.629 | 0.946 | 1.19 | 1.05 | 0.644 | 0.719 | 0.461 | 0.608
AGEGTYALDSE [PES1_Y265] | 0.435 | 0.617 | 0.928 | 0.935 | 0.816 | 0.528 | 0.434 | 0.972 | 0.511 | 0.984 | 1.04 | 0.878 | 0.484 | 0.643 | 0.576 | 0.5
AHAGEYGADAL [HBA1_Y25_E28D] | 0.61 | 0.448 | 0.708 | 0.357 | 0.776 | 0.436 | 0.373 | 0.606 | 0.416 | 0.414 | 0.653 | 0.578 | 0.392 | 0.41 | 0.401 | 0.312
AIDVGYRHIDC [AKR1B1_Y40] | 1.12 | 0.98 | 1.04 | 0.411 | 0.629 | 0.457 | 0.366 | 0.637 | 0.531 | 0.466 | 0.844 | 0.635 | 0.476 | 0.622 | 0.419 | 0.44
AKFLGYPPPEI [KDR_Y357_YF] | 0.619 | 0.476 | 0.794 | 0.436 | 0.627 | 0.488 | 0.412 | 0.773 | 0.413 | 0.426 | 0.902 | 0.565 | 0.499 | 0.609 | 0.474 | 0.459

More lines, main results first:

SH2 binding enrichment (SHP2-C SH2) | SH2 binding enrichment (c-Src SH2) | SH2 binding enrichment (Grb2 SH2) | Sequence | phosphorylation enrichment (c-Src) | phosphorylation enrichment (c-Abl (mouse)) | phosphorylation enrichment (Hck) | phosphorylation enrichment (MERTK) | phosphorylation enrichment (AncSZ) | phosphorylation enrichment (EPHB2) | phosphorylation enrichment (Fyn) | phosphorylation enrichment (Fes) | phosphorylation enrichment (Jak2) | phosphorylation enrichment (FGFR1) | phosphorylation enrichment (FGFR3) | phosphorylation enrichment (EPHB1) | phosphorylation enrichment (Fer (mouse))
1.1 | 0.464 | 1.08 | AGAIIYTSRFQ [PFAS_Y538] | 0.929 | 0.72 | 0.76 | 0.568 | 0.748 | 0.674 | 0.58 | 0.839 | 0.686 | 0.398 | 0.504 | 0.486 | 0.506
0.657 | 0.554 | 0.596 | AGQEDYDRLRS [RHOA_Y66_P71S] | 0.609 | 0.741 | 0.638 | 0.466 | 0.96 | 0.513 | 0.555 | 1.38 | 1.05 | 0.475 | 0.639 | 0.582 | 0.795
0.572 | 0.475 | 0.56 | AIFRRYSKFFD [SH3PXD2B_Y45_YF] | 0.626 | 0.773 | 0.54 | 0.572 | 1.03 | 0.565 | 0.582 | 1.13 | 1.04 | 0.598 | 0.587 | 0.526 | 0.408
